# Results taken from patent publication US20260242515A1 (DUALITY BIOLOGICS SHANGHAI, published 2026).
# T1: ADAM9 on human tumor cells (LS174T, HepG2, Calu-3, Colo205) (human, UniProt Q13443 29-819)
# T1 sequence (looked up): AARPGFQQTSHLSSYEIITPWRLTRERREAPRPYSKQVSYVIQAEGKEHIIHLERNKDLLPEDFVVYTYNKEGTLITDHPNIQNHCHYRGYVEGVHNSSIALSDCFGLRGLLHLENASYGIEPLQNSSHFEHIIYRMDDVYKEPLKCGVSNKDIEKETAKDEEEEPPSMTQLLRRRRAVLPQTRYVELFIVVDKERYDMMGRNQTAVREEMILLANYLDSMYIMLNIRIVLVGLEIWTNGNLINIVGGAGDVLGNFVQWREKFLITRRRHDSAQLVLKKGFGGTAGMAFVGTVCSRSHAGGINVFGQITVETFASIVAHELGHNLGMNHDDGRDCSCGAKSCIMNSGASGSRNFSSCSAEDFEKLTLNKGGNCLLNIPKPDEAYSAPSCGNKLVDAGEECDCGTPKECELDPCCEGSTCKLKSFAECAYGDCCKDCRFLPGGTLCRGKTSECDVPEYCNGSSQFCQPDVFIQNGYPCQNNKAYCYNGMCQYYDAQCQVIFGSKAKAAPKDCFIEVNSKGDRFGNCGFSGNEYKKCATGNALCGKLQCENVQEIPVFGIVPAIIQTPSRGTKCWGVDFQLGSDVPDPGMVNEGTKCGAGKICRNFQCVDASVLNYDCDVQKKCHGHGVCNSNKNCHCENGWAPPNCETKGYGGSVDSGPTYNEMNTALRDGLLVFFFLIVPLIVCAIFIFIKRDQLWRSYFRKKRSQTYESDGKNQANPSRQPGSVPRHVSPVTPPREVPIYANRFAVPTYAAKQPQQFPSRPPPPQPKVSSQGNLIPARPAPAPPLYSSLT
# T2: Human ADAM9 protein (ACROBiosystems, Cat. No. AD9-H52H7) (human, UniProt Q13443 29-697)
# T2 construct: Bought protein; also called Human ADAM-His protein; human ADAM9 antigen; not shown: His tag
# T2 sequence (looked up): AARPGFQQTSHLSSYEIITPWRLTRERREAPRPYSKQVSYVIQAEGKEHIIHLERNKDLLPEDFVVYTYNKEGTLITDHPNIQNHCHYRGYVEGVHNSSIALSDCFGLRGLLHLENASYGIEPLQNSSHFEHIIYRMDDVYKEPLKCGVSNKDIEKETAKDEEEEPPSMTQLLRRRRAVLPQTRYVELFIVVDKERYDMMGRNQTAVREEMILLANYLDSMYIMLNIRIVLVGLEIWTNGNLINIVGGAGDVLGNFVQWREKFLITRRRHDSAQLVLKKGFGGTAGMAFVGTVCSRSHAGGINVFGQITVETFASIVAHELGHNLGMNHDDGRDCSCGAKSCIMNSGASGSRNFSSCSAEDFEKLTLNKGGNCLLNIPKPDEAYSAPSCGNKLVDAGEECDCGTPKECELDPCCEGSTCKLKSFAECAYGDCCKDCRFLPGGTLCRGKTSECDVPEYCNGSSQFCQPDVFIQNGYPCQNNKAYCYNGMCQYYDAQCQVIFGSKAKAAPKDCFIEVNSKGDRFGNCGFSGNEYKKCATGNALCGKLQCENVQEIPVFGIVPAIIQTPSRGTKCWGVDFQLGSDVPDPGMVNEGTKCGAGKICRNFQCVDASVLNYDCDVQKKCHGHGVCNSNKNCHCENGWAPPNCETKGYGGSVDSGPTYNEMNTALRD
# Columns and labels:
# [1] = target: T1, ADAM9 on human tumor cells (LS174T, …); test: cell-based or functional assay
# [2] = target: T2, Human ADAM9 protein (ACROBiosystems, …); test: indirect ELISA, human ADAM9-His coated at 1 ug/mL
# Procedure: The plate was washed three times with PBST (PBS (pH 7.4) containing 0.05% Tween-20), followed by addition of 200 μL/well of blocking buffer containing 1% bovine serum albumin (BSA) diluted in PBST, and incubated at 37° C. for 1 hour for blocking. After blocking, the blocking buffer was discarded, and the plate was washed once with PBST buffer. The test antibody was diluted in PBST containing 1% BSA with a 3-fold serial dilution starting at 15 μg/mL across 11 doses, and added to the ELISA plate at 100 μL/well, followed by incubation at 37° C. for 1 hour. After incubation, the plate was washed three times with PBST, followed by addition of 100 μL/well of HRP-labeled goat anti-human secondary antibody (Rockland, Cat. No. 609-103-123) diluted in PBST containing 1% BSA, and incubated at room temperature for 45 minutes. The plate was washed six times with PBST, followed by addition of 100 μL/well of TMB chromogenic substrate (Suzhou Yacoo Chemical Reagent Co., Ltd., Cat. No. S0025), and incubated at room temperature in the dark for 10 minutes. The reaction was terminated by adding 50 μL/well of 1 M HCl, and the absorbance was measured at 450 nm using a microplate reader (Thermo, Ascent) for data analysis.
# [3] = target: T2, Human ADAM9 protein (ACROBiosystems, …); test: SPR (Biacore 8K), antibody captured by anti-human Fc on CM5, ADAM9 as analyte
# Procedure: Chip preparation: The mouse anti-human IgG (Fc) antibody (Cat. No. 29234600, Cytiva) was diluted to 25 μg/mL in immobilization buffer (10 mM sodium acetate, pH 5.0), specifically by adding 950 μL of the immobilization buffer to 50 μL of the mouse anti-human IgG (Fc) antibody. The dilution was used for immobilization in eight channels. First, the surface of the CM5 chip was activated with 400 mM EDC and 100 mM NHS at a flow rate of 10 μL/min for 420 seconds. Then, 25 μg/mL of the mouse anti-human IgG (Fc) antibody was injected into the test channels at a flow rate of 10 μL/min for approximately 360 seconds, with the level of immobilization at approximately 7000 to 14000 RU. Finally, the chip was blocked with 1 M ethanolamine at a flow rate of 10 μL/min for 420 seconds. The reference channels underwent the same procedures as the test channels.
# Ligand capture: Antibodies Ab10, Ab15, Ab16, and hMAB-A (2I.2) were diluted to 4 μg/mL in running buffer (containing 10 mM N-(2-hydroxyethyl)piperazine-N-2-ethanesulfonic acid (HEPES), 150 mM sodium chloride (NaCl), 3 mM ethylenediaminetetraacetic acid (EDTA), 0.005% Tween-20, pH adjusted to 7.4) and injected into the test channels for human IgG (Fc) capture at a flow rate of 10 μL/min at approximately 200 RU. No ligand capture was performed in the reference channels.
# Analyte multi-cycle analysis: Human and cynomolgus ADAM9 proteins (human ADAM9 protein purchased from ACRO, Cat. No. AD9-H52H7; monkey ADAM9 protein purchased from ACRO, Cat. No. AD9-C52H7) were diluted 2-fold in running buffer (Table 10). The diluted human or cynomolgus ADAM9 protein was sequentially injected into the test channels and the reference channels at a flow rate of 30 μL/min, with corresponding association and dissociation times. Both the association and dissociation steps were performed in the running buffer. After each concentration analysis, the chip was regenerated with 3 M magnesium chloride at a flow rate of 20 μL/min for 30 seconds to wash away the ligand and any undissociated analyte. For the next concentration analysis, the test channels required re-capture of the same amount of ligand.
# [4] = target: T1, ADAM9 on human tumor cells (LS174T, …); test: cell-based or functional assay; remark: listed apart in the source
binder,measurement,setting,value
"Ab10 (antibody, human IgG1, kappa, V domains shown, also called Ab10-V (variable regions)) VH: QVQLQESGAELKRPGSSVKVSCKASGFTFPLYWMNWVRQRPGRGLEWMGRIIPIFGHTKYNEKFKDRATLTADESSSTAYMELSSLRSDDSAVYYCARGGYYYYPREGFLDYWGQGTSVTVSS VL: DIVMTQSPASLSVSPGERASISCRSSQSVDYSGDSYMNWYQQKPGQSPRLLIYAASDRESGVPARFSGSKSGTDFTLKINRVEEEDAGTYYCQQSREDPFTFGQGTRVEIKR",EC50 for internalization,[1],0.16 nM
same,Maximum internalization rate (%),[1],81.3%
same,EC50,[2],0.059 nM
same,Top (OD450),[2],3.4 OD450
same,Kd,[3],17.5 nM
same,koff,[3],0.00255 s⁻¹
same,kon,[3],146000 M⁻¹ s⁻¹
"Ab1 (antibody, human IgG1, kappa, V domains shown, also called Ab01; Ab1-V (variable regions)) VH: QVQLQESGAEVKRPGSSVKVSCKASGFTFPLYWMNWVRQRPGQGLEWMGRIIPIFGHTDYNEKFKDRATITRDESSNTAYMELSRLRSEDSAVYYCARGGYYYYPREGFLDYWGQGTSVTVSS VL: DIVMTQSPASLSVSPGERASISCRSSQSVDYSGDSYMNWYQQKPGQSPRLLIYAASDRESGVPDRFSGSGSGTDFTLKISRVEEEDAGTYYCQQSREDPFTFGQGTKVDIKR",EC50,[2],0.052 nM
same,Top (OD450),[2],3.12 OD450
"Ab15-X2 (antibody, human IgG1, kappa, V domains shown, linker-payload X2 (camptothecin type) conjugated after TCEP reduction; DAR p=7.8 per antibody; sites not stated) VH: QVQLQQPGAELKKPGASVKVSCKASGFTFPLYWMNWVRQRPGRGLEWIGRIIPIFGHTKYNEKFKDRATMTADESSSTAYMELSSLTSEDSAVYYCARGGYYYYPREGFLDYWGQGTSVTVSS VL: DIVMTQSPDSLSVSPGERATINCRSSQSVDYSGDSYMNWYQQKPGQSPRLLIYAASDRESGVPDRFSGSGSGTDFTLKISNVEEEDAATYYCQQSREDPFTFGQGTRVEIKR","IC50 (nM), proliferation inhibition of Colo205 cells (CTG, 6 days)",[4],28.5 nM
same,"IC50 (nM), proliferation inhibition of LS174T cells (CTG, 6 days)",[4],11.6 nM
"Ab16-X1 (antibody, human IgG1, kappa, V domains shown, linker-payload X1 (camptothecin type) conjugated after TCEP reduction; DAR p=7.8 per antibody; sites not stated) VH: QVQLQQPGTEVVKPGASVKLSCKASGFTFPLYWMHWVRQRPGRGLEWIGRIIPIFGHTKYNEKFKNKATLTADESSSTAYMELRSLTSDDSAVYYCARGGYYYYPREGFLDYWGQGTSVTVSS VL: DIVMTQSPASLSVSPGERASISCRSSQSVDYSGDSYMNWYQQKPGQSPRLLIYAASDRESGVPDRFSGSGSGTDFTLKISRVEEEDAGTYYCQQSREDPFTFGQGTKVDIKR","IC50 (nM), proliferation inhibition of Calu-3 cells (CTG, 6 days)",[4],8.6 nM
"Ab4 (antibody, human IgG1, kappa, V domains shown, also called Ab04; Ab4-V (variable regions)) VH: QVQLQESGAEVKRPGSSVKVSCKASGFTFPLYWMNWVRQRPGRGLEWMGRIIPIFGHTKYNEKFKDRATMTRDKSSSTAYMELSSLTSDDSAVYYCARGGYYYYPREGFLDYWGQGTSVTVSS VL: DIVMTQSPSSLSVSPGERATINCRSSQSVDYSGDSYMNWYQQKPGQAPRLLIYAASDLESGVPDRFSGSGSGTDFTLNINGVEEEDAATYYCQQSREDPFTFGQGTKVEIKR",EC50,[2],0.055 nM
same,Top (OD450),[2],3.06 OD450
"Ab16-X2 (antibody, human IgG1, kappa, V domains shown, linker-payload X2 (camptothecin type) conjugated after TCEP reduction; DAR p=7.9 per antibody; sites not stated) VH: QVQLQQPGTEVVKPGASVKLSCKASGFTFPLYWMHWVRQRPGRGLEWIGRIIPIFGHTKYNEKFKNKATLTADESSSTAYMELRSLTSDDSAVYYCARGGYYYYPREGFLDYWGQGTSVTVSS VL: DIVMTQSPASLSVSPGERASISCRSSQSVDYSGDSYMNWYQQKPGQSPRLLIYAASDRESGVPDRFSGSGSGTDFTLKISRVEEEDAGTYYCQQSREDPFTFGQGTKVDIKR","IC50 (nM), proliferation inhibition of Calu-3 cells (CTG, 6 days)",[4],3.83 nM
same,"IC50 (nM), proliferation inhibition of Colo205 cells (CTG, 6 days)",[4],29.8 nM
same,"IC50 (nM), proliferation inhibition of LS174T cells (CTG, 6 days)",[4],8.97 nM
"Ab7 (antibody, human IgG1, kappa, V domains shown, also called Ab07; Ab7-V (variable regions)) VH: QVQLQESGAEVKRPGSSVKVSCKASGFTFPLYWMNWVRQRPGQGLEWMGRIIPIFGHTDYNEKFKDRATITRDESSNTAYMELSRLRSEDSAVYYCARGGYYYYPREGFLDYWGQGTSVTVSS VL: DIVMTQSPASLSVSPGERASINCRSDQSVDYSGDSYMNWYQQKPGKSPRLLIYAASDRESGVPDRFSGSGSGTDFTLNINSVEEEDAGTYYCQQSREDPFTFGQGTRVDIKR",EC50,[2],0.06 nM
same,Top (OD450),[2],3.31 OD450
